From patent US20240132578A1

Assays:
Test in all cases: cell-based or functional assay
[1] = molecular target: HIV-1 92RW020 envelope (Env) on pseudovirus (HIV-1)
[2] = molecular target: HIV-1 92TH021 envelope (Env) on pseudovirus (HIV-1)
[3] = molecular target: HIV-1 92UG005 envelope (Env) on pseudovirus (HIV-1)
[4] = molecular target: HIV-1 Env of isolate MGRM-Chronic-B-003, clade B (HIV-1)
[5] = molecular target: HIV-1 Env of isolate MGRM-D-008 (clade D pseudovirus) (HIV-1)
[6] = molecular target: HIV-1 Env of isolate MGRM-D-018 (clade D pseudovirus) (HIV-1)
[7] = molecular target: HIV-1 Env of isolate NL43, clade B (HIV-1)
[8] = molecular target: HIV-1 Env of isolate THR0.18 (Acute), clade B (HIV-1)
[9] = molecular target: HIV-1 Env of pseudovirus MGRM-F1-004 (clade F) (HIV-1)
[10] = molecular target: HIV-1 Env of pseudovirus MGRM-F1-008 (clade F) (HIV-1)
[11] = molecular target: HIV-1 Env of pseudovirus MGRM-F1-015 (clade F) (HIV-1)
[12] = molecular target: HIV-1 Env of pseudovirus MGRM-G-015 (HIV-1)
[13] = molecular target: HIV-1 MGRM-AE-004 Env (pseudovirus) (HIV-1)
[14] = molecular target: HIV-1 envelope glycoprotein (Env) of isolate MGRM-C-013 (HIV-1)
[15] = molecular target: HIV-1 envelope glycoprotein (Env) of isolate MGRM-C-022 (HIV-1)
[16] = molecular target: aMLV envelope on pseudovirus (negative control)
[17] = molecular target: HIV-1 Env of pseudovirus MGRM-D-013 (HIV-1)
[18] = molecular target: HIV-1 Env of pseudovirus MGRM-F1-008 (HIV-1)
[19] = molecular target: HIV-1 Env of pseudovirus MGRM-F1-015 (HIV-1)
[20] = molecular target: HIV-1 Env of pseudovirus MGRM-F1-023 (HIV-1)
[21] = molecular target: HIV-1 envelope glycoprotein (Env) of isolate MG RM-AG-001 (HIV-1)
[22] = molecular target: HIV-1 Env of isolate MG RM-A-005 (pseudovirus) (HIV-1)
[23] = molecular target: HIV-1 Env of isolate MG RM-A-006 (pseudovirus) (HIV-1)
[24] = molecular target: HIV-1 Env of isolate MG RM-A-008 (pseudovirus) (HIV-1)
[25] = molecular target: HIV-1 Env of isolate MGRM-G-014 (subtype G) (HIV-1)
[26] = molecular target: HIV-1 Env of isolate MGRM-G-016 (subtype G) (HIV-1)
[27] = molecular target: HIV-1 Env of pseudovirus isolate JR-FL (clade B) (HIV-1)
[28] = molecular target: HIV-1 Env of pseudovirus isolate MGRM-Chronic-B-002 (clade B) (HIV-1)

PGT-142 (4995_E20) (antibody), sequence (VH): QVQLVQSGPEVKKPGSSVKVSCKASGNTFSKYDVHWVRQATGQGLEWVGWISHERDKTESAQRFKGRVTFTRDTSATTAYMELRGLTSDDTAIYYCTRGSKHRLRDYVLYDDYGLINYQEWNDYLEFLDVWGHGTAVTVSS
PGT-142 (4995_E20) (antibody), sequence (VL): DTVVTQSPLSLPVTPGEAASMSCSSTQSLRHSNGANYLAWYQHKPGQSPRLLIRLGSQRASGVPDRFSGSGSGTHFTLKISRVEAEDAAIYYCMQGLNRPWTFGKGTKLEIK
PGT-144 (4970_K22) (antibody), sequence (VH): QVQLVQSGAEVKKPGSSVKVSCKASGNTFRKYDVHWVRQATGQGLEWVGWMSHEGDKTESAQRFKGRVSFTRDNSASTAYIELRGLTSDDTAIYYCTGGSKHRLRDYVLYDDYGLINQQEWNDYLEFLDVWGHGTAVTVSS
PGT-144 (4970_K22) (antibody), sequence (VL): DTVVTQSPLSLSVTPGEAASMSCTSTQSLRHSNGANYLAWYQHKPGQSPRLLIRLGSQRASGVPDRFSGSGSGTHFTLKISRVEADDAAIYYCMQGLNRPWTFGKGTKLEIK
PGT-145 (4995_P16) (antibody), sequence (VH): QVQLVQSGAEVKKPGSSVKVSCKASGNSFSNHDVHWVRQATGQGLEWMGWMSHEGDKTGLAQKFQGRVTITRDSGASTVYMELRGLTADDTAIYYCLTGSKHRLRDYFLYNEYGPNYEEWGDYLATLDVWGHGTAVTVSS
PGT-145 (4995_P16) (antibody), sequence (VL): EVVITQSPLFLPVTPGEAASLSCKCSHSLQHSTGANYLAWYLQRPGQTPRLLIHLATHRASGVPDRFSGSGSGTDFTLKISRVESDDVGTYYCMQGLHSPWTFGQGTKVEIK
PGT-143 (4980_N08) (antibody), sequence (VH): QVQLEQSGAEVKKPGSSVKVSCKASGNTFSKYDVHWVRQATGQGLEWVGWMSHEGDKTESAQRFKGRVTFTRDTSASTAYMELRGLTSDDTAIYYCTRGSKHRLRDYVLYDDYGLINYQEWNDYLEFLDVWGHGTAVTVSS
PGT-143 (4980_N08) (antibody), sequence (VL): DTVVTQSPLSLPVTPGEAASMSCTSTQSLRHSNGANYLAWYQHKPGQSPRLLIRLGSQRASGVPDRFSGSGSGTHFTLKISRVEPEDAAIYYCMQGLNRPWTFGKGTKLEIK
1443_C16 (PG16) (TCN-116) (antibody), sequence (VH): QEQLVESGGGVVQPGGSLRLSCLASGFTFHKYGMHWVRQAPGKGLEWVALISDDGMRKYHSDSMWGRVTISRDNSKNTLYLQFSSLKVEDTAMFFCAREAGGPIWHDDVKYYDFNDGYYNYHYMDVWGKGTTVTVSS
1443_C16 (PG16) (TCN-116) (antibody), sequence (VL): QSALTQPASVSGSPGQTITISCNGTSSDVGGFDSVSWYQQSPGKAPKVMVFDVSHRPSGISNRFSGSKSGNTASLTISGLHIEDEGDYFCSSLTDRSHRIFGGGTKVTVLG
PGT-141 (4964_G22; 4993_K13) (antibody), sequence (VH): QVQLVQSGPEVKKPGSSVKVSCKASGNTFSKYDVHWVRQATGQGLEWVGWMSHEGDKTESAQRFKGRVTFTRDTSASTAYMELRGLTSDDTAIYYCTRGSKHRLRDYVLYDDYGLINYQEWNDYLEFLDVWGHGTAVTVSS

Row | Substance | neutralization IC50 [1] [mg/L] | neutralization IC50 [2] [mg/L] | neutralization IC50 [3] [mg/L] | IC50 (µg/ml), pseudovirus neutralization [4] [µg/mL] | IC50, pseudovirus neutralization [5] [mg/L] | IC50, pseudovirus neutralization [6] [mg/L] | IC50 (µg/ml), pseudovirus neutralization [7] [µg/mL] | IC50 (µg/ml), pseudovirus neutralization [8] [µg/mL] | IC50 [9] [mg/L] | IC50 [10] [mg/L] | IC50 [11] [mg/L] | IC50 (µg/ml), pseudovirus neutralization [12] [µg/mL] | IC50 (µg/ml), pseudovirus neutralization [13] [µg/mL] | IC50 (µg/ml), pseudovirus neutralization [14] [µg/mL] | IC50 (µg/ml), pseudovirus neutralization [15] [µg/mL] | neutralization IC50 [16] [mg/L] | IC50, pseudovirus neutralization [17] [mg/L] | IC50, pseudovirus neutralization [18] [mg/L] | IC50, pseudovirus neutralization [19] [mg/L] | IC50, pseudovirus neutralization [20] [mg/L] | also measured
1 | 2F5 (antibody) | 3.37 | 1.51 | 11.8 | 1 | > 50 | 4.05 | 2.02 | > 50 | 4.31 | 1.61 | 0.1 | 0.43 | 0.98 | 18.4 | > 50 | > 50 |  |  |  |  | 
2 | 2G12 (antibody) | 0.56 | > 50 | > 50 | 0.06 | > 50 | 0.12 | 0.49 | > 50 | > 50 | > 50 | > 50 | > 50 | > 50 | > 50 | > 50 | > 50 |  |  |  |  | 
3 | 4E10 (antibody) | 3.38 | 1.9 | 8.86 | 3.5 | 42.9 | 3.9 | 4.67 | 4.68 | 2.74 | 2.75 | 0.53 | 1.07 | 1.27 | 2.1 | 5.71 | > 50 |  |  |  |  | 
4 | 1443_C16 (PG16) (TCN-116) (antibody) | 0.004 | 0.127 | > 50 | 0.19 | > 50 | 0.004 | 0.02 | 1.34 | 0.43 | > 50 | > 50 | 5.33 | 0.002 | > 50 | 0.25 | > 50 |  |  |  |  | 
5 | 1495_C14 (PGC14) (antibody) | 28.6 | > 50 | > 50 | > 50 | > 50 | > 50 | 40 | > 50 | > 50 | > 50 | > 50 | > 50 | > 50 | > 50 | > 50 | > 50 |  |  |  |  | 
6 | PGT-141 (4964_G22; 4993_K13) (antibody) |  |  |  |  |  |  |  |  |  |  |  |  |  |  |  |  | 0.179 | 0.193 | > 50 | 0.307 | IC50 [21]: 18 mg/L
7 | PGT-142 (4995_E20) (antibody) |  |  |  |  |  |  |  |  |  |  |  |  |  |  |  |  | 0.221 | 0.124 | > 50 | 0.602 | IC50 [21]: 12.4 mg/L
8 | PGT-143 (4980_N08) (antibody) |  |  |  |  |  |  |  |  |  |  |  |  |  |  |  |  | 0.386 | 0.189 | > 50 | 0.972 | IC50 [21]: 18.9 mg/L
9 | PGT-144 (4970_K22) (antibody) |  |  |  |  |  |  |  |  |  |  |  |  |  |  |  |  | > 50 | 0.507 | > 50 | 1.16 | IC50 [21]: > 50 mg/L
10 | PGT-145 (4995_P16) (antibody) |  |  |  |  |  |  |  |  |  |  |  |  |  |  |  |  | 3.48 | 0.228 | 1.76 | 5.88 | IC50 [21]: 0.164 mg/L
11 | VRC01 (antibody) |  |  |  |  |  |  |  |  |  |  |  |  |  |  |  |  | 0.087 | 1.11 | 0.387 | 0.392 | IC50 (µg/mL), single-round pseudovirus neutralization [22]: 0.095 µg/mL; IC50 (µg/mL), single-round pseudovirus neutralization [23]: 0.521 µg/mL; IC50 (µg/mL), single-round pseudovirus neutralization [24]: 0.303 µg/mL; IC50 (µg/mL), pseudovirus neutralization [25]: 0.056 µg/mL; IC50 (µg/mL), pseudovirus neutralization [26]: 0.063 µg/mL; IC50, pseudovirus neutralization [27]: 0.034 mg/L; IC50, pseudovirus neutralization [28]: 0.117 mg/L; IC50 [21]: 0.228 mg/L
12 | b12 (antibody) | > 50 | 9.99 | > 50 | > 50 | > 50 | 1.39 | 0.17 | 3.62 | > 50 | > 50 | > 50 | > 50 | > 50 | > 50 | > 50 | > 50 |  |  |  |  | 
